These results are taken from patent US20210163545A1.

B1: Recombinant immunoglobulin κ chain binding protein KBP9 (protein, part only; not given: further domain copies and linkers, part only)
chain, part: KETETEEPKEEVTIKVNLIFADGKTQTATFKGTFEEATAEAYRYADLLAKVNGEYTADLEDGGYTINIKFAGK
B2: Recombinant immunoglobulin κ chain binding protein KBP8 (protein, part only; not given: further domain copies and linkers, part only)
chain, part: KETETPEEPKEEVTIKVNLIFADGKTQTATFKGTFEEATAEAYRYADLLAKVNGEYTADLEDGGYTINIKFAGK
B3: Recombinant type immunoglobulin κ chain binding protein KBP0 (protein)
chain: KETPETPEEPKEEVTIKVNLIFADGKTQTATFKGTFEEATAEAYRYADLLAKVNGEYTADLEDGGYTINIKFAGKKETPETPEEPKEEVTIKVNLIFADGKTQTATFKGTFEEATAEAYRYADLLAKVNGEYTADLEDGGYTINIKFAGKKETPETPEEPKEEVTIKVNLIFADGKTQTATFKGTFEEATAEAYRYADLLAKVNGEYTADLEDGGYTINIKFAGKKETPETPEEPKEEVTIKVNLIFADGKTQTATFKGTFEEATAEAYRYADLLAKVNGEYTADLEDGGYTINIKFAGK
B4: Recombinant immunoglobulin κ chain binding protein KBP3 (protein)
chain: B3 chain with T35R, T110R, T185R, T260R
B5: Recombinant immunoglobulin κ chain binding protein KBP1 (protein)
chain: B3 chain with K17R, K92R, K167R, K242R
B6: Recombinant immunoglobulin κ chain binding protein KBP5 (protein)
chain: B3 chain with N54Q, N129Q, N204Q, N279Q
B7: Recombinant immunoglobulin κ chain binding protein KBP2 (protein)
chain: B3 chain with K26R, K101R, K176R, K251R
B8: Recombinant immunoglobulin κ chain binding protein KBP4 (protein)
chain: B3 chain with Y44F, Y119F, Y194F, Y269F
B9: Recombinant immunoglobulin κ chain binding protein KBP6 (protein, part only; not given: further domain copies and linkers, part only)
chain, part: KETPETPEEPKEEVTIKVNLIFADGKTQTATFKGTFEEATAEAYRYADLLAKVNAGEYTADLEDGGYTINIKFAGK
B10: Recombinant immunoglobulin κ chain binding protein KBP7 (protein, part only; not given: further domain copies and linkers, part only)
chain, part: B9 chain, part with A55Y

Residue numbers refer to the chain shown, from its start.

The target in one test is Fab. Put plainly: static binding capacity for Fab after 0.1 M NaOH for 24 h, relative to SBC of the same particles without alkali treatment.
Take B1: the SBC retention ratio (%) after alkali treatment is 42%.
For the molecule B2, the SBC retention ratio (%) after alkali treatment stood at 45%.
On the same count and under the same terms, the figure for B3 is 39%.
On the same count and under the same terms, under B4 stands 48%; under B5, 46%; under B6, 51%.
Same read-out and setting: under B7 stands 46%.
Consider B8, for which the SBC retention ratio (%) after alkali treatment worked out at 49%.
For the molecule B9, the SBC retention ratio (%) after alkali treatment came to 58%.
As for B10, the SBC retention ratio (%) after alkali treatment stood at 73%.

The next test addresses Fab. The test can be described thus: static binding capacity: Fab incubated with ligand-immobilized porous particles, eluted at pH 2.5, absorbance.
For the molecule B1, the SBC without alkali treatment (mg/mL-particles) came out at 60.
Same read-out and setting: the figure for B2 is 60.
Still for that read-out and setting: the figure for B3 is 60; for B4 it is 58.
Consider B5, for which the SBC without alkali treatment (mg/mL-particles) came to 56.
On the same count and under the same terms, the figure for B6 is 63; for B7 it is 59.
Same read-out and setting: the figure for B8 is 47.
The molecule B9 showed an SBC without alkali treatment (mg/mL-particles) of 61.
The same measure, in the same setting: under B10 stands 64.
